Reference: patent publication US20250262210A1 (TRUSTEES OF COLUMBIA UNIVERSITY IN THE CITY OF NEW YORK, published 2025)

What was measured:
Experiment in all cases: IP/MS, LZTR1 R810W-FLAG, U87
RTTN = RTTN (human, UniProt Q86VV8 1-2226, limits assumed)
How it was run: (§1)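 Gel slices were reduced with 5 mM DTT, alkylated with 11 mM IAA and digested overnight at 37° C. with trypsin. Peptides were analysed on an Orbitrap Fusion Tribrid by LC-MS/MS.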

ARFGEF1 = ARFGEF1 (human, UniProt Q9Y6D6 1-1849)
Chain of ARFGEF1 (Q9Y6D6 whole entry): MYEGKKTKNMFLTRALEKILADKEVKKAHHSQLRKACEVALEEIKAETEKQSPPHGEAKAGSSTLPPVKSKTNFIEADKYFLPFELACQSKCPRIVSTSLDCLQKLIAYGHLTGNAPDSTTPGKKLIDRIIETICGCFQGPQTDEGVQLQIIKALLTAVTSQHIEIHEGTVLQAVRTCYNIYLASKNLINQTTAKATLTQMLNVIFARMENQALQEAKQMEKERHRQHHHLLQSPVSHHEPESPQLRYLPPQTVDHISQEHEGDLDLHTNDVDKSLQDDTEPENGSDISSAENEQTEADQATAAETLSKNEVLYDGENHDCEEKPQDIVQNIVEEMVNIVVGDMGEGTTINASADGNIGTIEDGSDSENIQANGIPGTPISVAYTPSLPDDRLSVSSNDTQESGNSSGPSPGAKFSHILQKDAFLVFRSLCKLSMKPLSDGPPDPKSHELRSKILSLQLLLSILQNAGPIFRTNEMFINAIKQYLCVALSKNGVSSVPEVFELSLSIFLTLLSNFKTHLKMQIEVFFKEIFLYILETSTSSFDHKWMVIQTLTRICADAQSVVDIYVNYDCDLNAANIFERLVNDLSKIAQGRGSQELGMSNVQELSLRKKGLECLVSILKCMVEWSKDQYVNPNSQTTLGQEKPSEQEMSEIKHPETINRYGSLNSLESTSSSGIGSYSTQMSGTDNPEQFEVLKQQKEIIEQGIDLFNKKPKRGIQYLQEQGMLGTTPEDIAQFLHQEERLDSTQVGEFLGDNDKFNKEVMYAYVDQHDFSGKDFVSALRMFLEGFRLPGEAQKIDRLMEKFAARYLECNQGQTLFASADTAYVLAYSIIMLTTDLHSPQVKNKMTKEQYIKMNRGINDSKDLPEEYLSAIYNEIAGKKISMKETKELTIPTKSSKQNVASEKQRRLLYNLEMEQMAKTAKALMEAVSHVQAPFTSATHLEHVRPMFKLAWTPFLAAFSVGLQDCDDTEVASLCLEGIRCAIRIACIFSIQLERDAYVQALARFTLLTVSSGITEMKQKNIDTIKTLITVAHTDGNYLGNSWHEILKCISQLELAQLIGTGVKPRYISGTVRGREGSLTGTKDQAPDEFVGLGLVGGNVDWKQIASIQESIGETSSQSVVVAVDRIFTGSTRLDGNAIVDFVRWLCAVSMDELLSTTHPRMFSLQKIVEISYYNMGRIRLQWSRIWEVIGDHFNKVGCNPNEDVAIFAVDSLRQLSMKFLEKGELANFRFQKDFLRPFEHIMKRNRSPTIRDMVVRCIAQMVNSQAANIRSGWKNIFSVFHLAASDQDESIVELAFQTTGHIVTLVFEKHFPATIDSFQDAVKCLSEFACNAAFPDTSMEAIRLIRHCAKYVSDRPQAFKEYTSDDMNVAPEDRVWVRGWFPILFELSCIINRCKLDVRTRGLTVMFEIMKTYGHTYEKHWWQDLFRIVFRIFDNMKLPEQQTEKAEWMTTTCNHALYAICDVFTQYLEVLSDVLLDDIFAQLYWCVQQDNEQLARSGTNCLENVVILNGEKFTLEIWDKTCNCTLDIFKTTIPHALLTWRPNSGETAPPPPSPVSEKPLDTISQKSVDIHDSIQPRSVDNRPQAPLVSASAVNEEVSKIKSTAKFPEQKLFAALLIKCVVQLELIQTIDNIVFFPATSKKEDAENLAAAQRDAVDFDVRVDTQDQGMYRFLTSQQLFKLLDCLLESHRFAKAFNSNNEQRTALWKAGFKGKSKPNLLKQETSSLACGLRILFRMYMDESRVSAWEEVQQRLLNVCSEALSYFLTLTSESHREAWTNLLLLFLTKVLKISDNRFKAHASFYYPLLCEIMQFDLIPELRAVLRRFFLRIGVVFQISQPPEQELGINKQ
How it was run: as §1

TRIM16 = TRIM16 (human, UniProt O95361 1-564, limits assumed)
How it was run: as §1

ARHGAP31 = ARHGAP31 (human, UniProt Q2M1Z3 1-1444)
Chain of ARHGAP31 (Q2M1Z3 whole entry): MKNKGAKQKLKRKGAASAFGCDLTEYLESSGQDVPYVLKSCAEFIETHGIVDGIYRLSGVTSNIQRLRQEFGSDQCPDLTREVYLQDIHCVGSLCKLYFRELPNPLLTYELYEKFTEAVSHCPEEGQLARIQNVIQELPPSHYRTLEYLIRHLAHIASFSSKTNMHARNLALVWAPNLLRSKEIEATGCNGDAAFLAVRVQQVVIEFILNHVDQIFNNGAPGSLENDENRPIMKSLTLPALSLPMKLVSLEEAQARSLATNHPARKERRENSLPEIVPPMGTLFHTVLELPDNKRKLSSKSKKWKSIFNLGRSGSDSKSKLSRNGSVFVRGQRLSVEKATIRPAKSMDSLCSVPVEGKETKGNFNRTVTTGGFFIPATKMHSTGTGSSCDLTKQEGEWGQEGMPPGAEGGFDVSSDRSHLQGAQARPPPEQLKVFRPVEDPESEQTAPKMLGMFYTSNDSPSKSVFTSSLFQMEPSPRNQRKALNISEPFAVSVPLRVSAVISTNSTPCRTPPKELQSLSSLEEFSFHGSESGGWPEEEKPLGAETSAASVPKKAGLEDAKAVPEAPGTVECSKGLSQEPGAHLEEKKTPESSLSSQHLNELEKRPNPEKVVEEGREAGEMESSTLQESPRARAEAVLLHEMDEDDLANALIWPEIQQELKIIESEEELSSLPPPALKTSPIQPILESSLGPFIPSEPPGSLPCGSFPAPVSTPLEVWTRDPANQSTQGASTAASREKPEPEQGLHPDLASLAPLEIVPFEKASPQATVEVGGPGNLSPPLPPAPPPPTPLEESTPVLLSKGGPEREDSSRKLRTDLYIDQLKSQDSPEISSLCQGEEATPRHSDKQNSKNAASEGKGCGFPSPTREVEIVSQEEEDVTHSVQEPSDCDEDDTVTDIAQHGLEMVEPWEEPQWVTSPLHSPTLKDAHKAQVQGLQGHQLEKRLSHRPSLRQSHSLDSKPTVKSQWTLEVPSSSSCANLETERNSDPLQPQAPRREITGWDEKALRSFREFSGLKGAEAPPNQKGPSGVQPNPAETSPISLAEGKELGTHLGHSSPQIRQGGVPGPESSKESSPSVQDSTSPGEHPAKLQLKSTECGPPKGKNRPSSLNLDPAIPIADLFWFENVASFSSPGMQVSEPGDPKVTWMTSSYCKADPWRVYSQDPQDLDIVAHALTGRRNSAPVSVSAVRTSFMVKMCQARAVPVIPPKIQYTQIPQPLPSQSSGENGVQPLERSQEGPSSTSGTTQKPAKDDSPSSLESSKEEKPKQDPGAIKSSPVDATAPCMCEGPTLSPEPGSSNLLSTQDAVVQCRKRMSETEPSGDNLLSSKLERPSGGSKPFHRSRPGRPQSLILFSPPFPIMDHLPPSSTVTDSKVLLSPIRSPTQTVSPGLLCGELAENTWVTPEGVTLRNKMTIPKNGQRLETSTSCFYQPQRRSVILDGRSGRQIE
How it was run: as §1

KIAA1468 = target: T1, KIAA1468 (human, UniProt Q9P260 2-1216, limits assumed)
T1 sequence (looked up): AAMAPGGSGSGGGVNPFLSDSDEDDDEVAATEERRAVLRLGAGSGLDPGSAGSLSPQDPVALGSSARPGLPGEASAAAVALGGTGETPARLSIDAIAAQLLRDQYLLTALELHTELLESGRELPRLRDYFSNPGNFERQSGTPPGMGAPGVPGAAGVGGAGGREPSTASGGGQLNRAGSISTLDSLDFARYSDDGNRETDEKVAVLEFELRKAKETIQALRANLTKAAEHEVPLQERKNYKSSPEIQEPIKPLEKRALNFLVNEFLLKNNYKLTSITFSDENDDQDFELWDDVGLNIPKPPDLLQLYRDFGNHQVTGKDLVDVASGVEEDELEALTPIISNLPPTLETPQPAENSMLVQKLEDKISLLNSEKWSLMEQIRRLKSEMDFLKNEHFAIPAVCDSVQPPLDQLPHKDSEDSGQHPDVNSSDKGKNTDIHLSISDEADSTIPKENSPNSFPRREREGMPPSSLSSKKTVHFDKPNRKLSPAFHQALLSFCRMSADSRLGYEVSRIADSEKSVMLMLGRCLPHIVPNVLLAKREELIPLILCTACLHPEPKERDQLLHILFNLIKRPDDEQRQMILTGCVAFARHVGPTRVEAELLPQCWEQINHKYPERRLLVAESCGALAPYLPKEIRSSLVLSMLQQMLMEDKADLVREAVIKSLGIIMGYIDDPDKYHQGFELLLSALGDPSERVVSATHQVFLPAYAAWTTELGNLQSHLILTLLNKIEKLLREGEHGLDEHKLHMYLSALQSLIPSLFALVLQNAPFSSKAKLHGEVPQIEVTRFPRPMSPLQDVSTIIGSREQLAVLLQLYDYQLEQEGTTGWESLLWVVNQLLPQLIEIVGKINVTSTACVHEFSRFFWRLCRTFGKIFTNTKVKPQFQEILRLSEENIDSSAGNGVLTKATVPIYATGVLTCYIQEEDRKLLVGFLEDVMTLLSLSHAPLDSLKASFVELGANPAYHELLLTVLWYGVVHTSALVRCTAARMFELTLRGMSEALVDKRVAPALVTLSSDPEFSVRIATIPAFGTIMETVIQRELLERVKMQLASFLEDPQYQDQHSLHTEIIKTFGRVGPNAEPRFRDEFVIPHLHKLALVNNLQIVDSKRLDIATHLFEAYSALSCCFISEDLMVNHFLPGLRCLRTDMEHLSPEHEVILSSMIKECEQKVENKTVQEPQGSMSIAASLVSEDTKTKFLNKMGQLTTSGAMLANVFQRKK
How it was run: as §1

Measured: binding result

B1: LZTR1 R810W-FLAG (other, human, UniProt Q8N653 1-840, looked up)
chain: MAGPGSTGGQIGAAALAGGARSKVAPSVDFDHSCSDSVEYLTLNFGPFETVHRWRRLPPCDEFVGARRSKHTVVAYKDAIYVFGGDNGKTMLNDLLRFDVKDCSWCRAFTTGTPPAPRYHHSAVVYGSSMFVFGGYTGDIYSNSNLKNKNDLFEYKFATGQWTEWKIEGRLPVARSAHGATVYSDKLWIFAGYDGNARLNDMWTIGLQDRELTCWEEVAQSGEIPPSCCNFPVAVCRDKMFVFSGQSGAKITNNLFQFEFKDKTWTRIPTEHLLRGSPPPPQRRYGHTMVAFDRHLYVFGGAADNTLPNELHCYDVDFQTWEVVQPSSDSEVGGAEVPERACASEEVPTLTYEERVGFKKSRDVFGLDFGTTSAKQPTQPASELPSGRLFHAAAVISDAMYIFGGTVDNNIRSGEMYRFQFSCYPKCTLHEDYGRLWESRQFCDVEFVLGEKEECVQGHVAIVTARSRWLRRKITQARERLAQKLEQEAAPVPREAPGVAAGGARPPLLHVAIREAEARPFEVLMQFLYTDKIKYPRKGHVEDVLLIMDVYKLALSFQLCRLEQLCRQYIEASVDLQNVLVVCESAARLQLSQLKEHCLNFVVKESHFNQVIMMKEFERLSSPLIVEIVRRKQQPPPRTPLDQPVDIGTSLIQDMKAYLEGAGAEFCDITLLLDGHPRPAHKAILAARSSYFEAMFRSFMPEDGQVNISIGEMVPSRQAFESMLRYIYYGEVNMPPEDSLYLFAAPYYYGFYNNRLQAYCKQNLEMNVTVQNVLQILEAADKTQALDMKRHCLHIIVHQFTKVSKLPTLWSLSQQLLLDIIDSLASHISDKQCAELGADI
notes: Stably expressed in U87 cells by lentivirus; also called LZTR1-FLAG-R810W; LZTR1 RW; not shown: FLAG tag
binds: all assays above
